In the series the target is T1, CD271 (NGFR, p75NTR)/Fc chimera (Homo sapiens, UniProt P08138 P08138:29-250).
T1 chain: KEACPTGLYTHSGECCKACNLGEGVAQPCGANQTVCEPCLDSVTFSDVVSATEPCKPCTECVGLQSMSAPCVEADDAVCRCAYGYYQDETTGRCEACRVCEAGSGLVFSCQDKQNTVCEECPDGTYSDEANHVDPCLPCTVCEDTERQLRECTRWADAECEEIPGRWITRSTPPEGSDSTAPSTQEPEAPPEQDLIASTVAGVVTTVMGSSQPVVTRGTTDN
Nature of the series: size exclusion HPLC, 0.01 M PBS pH 7.4, room temperature, aptamer to protein 5:1; complex elutes at 21.2 min. To be noted: tags: human IgG1 Fc chimera, Sigma-Aldrich N8898 (lyophilized with PBS salts and BSA); chain copies: 2; label: biotin.

B1: 1391-Motif (ssDNA)
DNA: TACGACTCACTATAGGGATCCAAGAAAGAAAAAGGAGAAAGGGGGGGGGGAATTCCCTTTAGTGAGGGTT
modifications: biotinylated for SPR
With B1, the binding result is listed as “binds”.

The values above are taken from patent publication US20150376619, “APTAMERS THAT BIND CD271” (VIVONICS, INC., published 2015).
